Measurements published in patent publication CN113929774A (INST MICROBIOLOGY CAS, dated 2022).

Target: SARS-CoV-2野生型(WT)活病毒的S蛋白 (hCoV-19/China/CAS-B001/2020) (SARS-CoV-2, UniProt P0DTC2 14-1273)
Experiment: cell-based or functional assay

B1: 9K抗体 (antibody, V domains shown)
VH: EVQLVESGGGVVQPGRSLGLSCAVSGFTFSSYAMHWVRQAPGKGLEWVALISNDGTIDSYADSVKGRFTISRDNSKNTLYLRMSSLRAEDTAVYYCARDKEQLVPTFDYWGQGTLVTVSS
VL: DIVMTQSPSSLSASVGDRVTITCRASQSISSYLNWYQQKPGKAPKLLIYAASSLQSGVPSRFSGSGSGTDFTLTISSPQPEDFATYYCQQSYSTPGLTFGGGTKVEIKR
- 中和滴度(半抑制浓度，IC50), live virus CPE assay on Vero E6 cells: 49.4 µg/mL
